In the supplement of paper PMC10126150:
± gives the standard deviation of the averaged measurements.

System: ATP
Test: switch fluorescence ratio, 500 uM ATP over buffer (Cy3 cluster intensity, sum of 5 cycles each) (fold (ratio)); higher = stronger signal-on switching upon ATP binding; sequences stand for … in TCGTCGGCAGCGTCAGATGTGTATAAGAGACAGTTTTTTTTTTTTTTTTTTTTTTTTT…TC
Conditions: aptamer strand: ATP DNA aptamer (quencher-CACCTGGGGGAGTATTGCGGAGGAAGG + anchor), 100 nM annealed; ATP concentration: 500 uM
In short: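 Clusters carrying Cy3-labelled switching strands on a modified Illumina MiSeq flow-cell were annealed to 100 nM quencher-labelled ATP aptamer and imaged in selection buffer. They were imaged again after 15 min with 500 uM ATP at 22 °C, over five buffer/ATP cycles with NaOH stripping and re-annealing in between. For each cluster, the fluorescence ratio is the summed Cy3 intensity of the target cycles divided by that of the buffer cycles, averaged per switch-domain sequence. Clusters outside 100-1000 RFU were left out.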
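Also: ATP exposure 15 min at 22 °C before imaging.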

Sequence | switch fluorescence ratio
GGATCTTTAT | 0.9932 ± 0.0096
TACGGGGGGG | 1.07 ± 0.074
TGAGGCCGAA | 1.015 ± 0.0088
TGGGGGGGAG | 0.996 ± 0.029
GATTCTATAG | 0.988 ± 0.036
TTGCTTTAGA | 0.974 ± 0.012
ACAAGGGGGG | 1 ± 0.045
CGAGTCTCGT | 1.03 ± 0.04
CCTAGTACCT | 1.19 ± 0.05
TGTTGATCAG | 0.982 ± 0.03
TCAAAGTTTT | 1.01 ± 0.023
ACAGGCTGGT | 1.02 ± 0.028
AGTTGTTTGG | 1 ± 0.025
TGCTAACGTG | 0.977 ± 0.0057
AGTTTCGCTC | 0.987 ± 0.063
TAGGTAGGCT | 0.974 ± 0.025
AGTTGGGGTA | 1 ± 0.013
TGATGGTCGA | 1.02 ± 0.032
ATTTTTTGAG | 1 ± 0.034
AGGAGTTATG | 1.015 ± 0.0046
AGGGGTCTGT | 1.015 ± 0.0013
GGGGTTTATG | 0.975 ± 0.028
GTAATCGCAA | 2.65 ± 0.15
CGTGTATGGG | 1 ± 0.037
GACGCATGGT | 2.37 ± 0.15
CAATGAGCCG | 1.02 ± 0.052

Sequence | switch fluorescence ratio
AAGCTGGGAC | 1.08 ± 0.015
CGCGGTGCTC | 3.17 ± 0.43
GGGGGTGCCT | 0.986 ± 0.064
ATTCCCGGTT | 1.03 ± 0.022
TTTGTGGCTA | 1.03 ± 0.031
GCGTGTGAGC | 1 ± 0.012
TCTTTTTTTT | 1 ± 0.041
TGTATTTGGC | 0.914 ± 0.044
TTTTCATCGC | 1.18 ± 0.18
CAATTTTGGA | 1.01 ± 0.028
TCGGGTGCGA | 1.04 ± 0.011
CCTGAGTGTA | 1 ± 0.024
GCACTTGGTG | 1.02 ± 0.024
TATTGGAGTT | 1.04 ± 0.015
TTTGTTGGCA | 0.986 ± 0.024
CATTGTTGAG | 1.01 ± 0.049
CTCTACGCCG | 0.9875 ± 0.0053
CGTTTATGGT | 0.967 ± 0.022
GGAAATATAG | 0.989 ± 0.012
TTTTTCAACC | 1.02 ± 0.017
AGGTACAGAC | 1.12 ± 0.024
GATTAATAAG | 1.16 ± 0.26
GGGGTTCTCG | 1.001 ± 0.0031
CAGGACTGGG | 1.01 ± 0.0056
TTTTATGGGC | 1.01 ± 0.025
GCCGGTACAA | 1.01 ± 0.073

Sequence | switch fluorescence ratio
TTTTAACCGA | 1.08 ± 0.034
CGCAAGTATG | 1.26 ± 0.036
GTTGAAGGAT | 1.003 ± 0.0036
GGGAGATAGC | 1.06 ± 0.015
TTTTAGAGTA | 1.003 ± 0.009
CGGTATAGTT | 0.988 ± 0.022
GCCGGTTTTC | 1.03 ± 0.044
GGGAAACGGT | 1.03 ± 0.011
GTATGAATGT | 0.985 ± 0.03
CATACCGGGG | 1.025 ± 0.0049
TTTCACCGGG | 1.16 ± 0.17
GGCATCGGTT | 0.977 ± 0.027
ACCGGGGGGG | 1 ± 0.035
AGTGGCACGG | 1 ± 0.029
CAATTTCCAG | 1.02 ± 0.026
CTTCTGGTCG | 1.01 ± 0.04
GTATTTCCGG | 0.9965 ± 0.0056
AATAGTAGGG | 1.01 ± 0.017
TATATAACGG | 1.036 ± 0.01
CGAGTGTGGG | 1.01 ± 0.021
TTTCGCTCGT | 0.9628 ± 0.003
TTGATTTACT | 0.993 ± 0.03
TTTCTACGTA | 1.13 ± 0.14
TTGTTGA | 0.984 ± 0.042
CCGATCGTGG | 2.86 ± 1.9
CGTATTTAAA | 1.01 ± 0.013

Sequence | switch fluorescence ratio
TTTTCATGTG | 0.995 ± 0.027
TGAAGGGGGT | 0.999 ± 0.032
AATCGGAATT | 1.01 ± 0.03
TGTACGAGAA | 1.003 ± 0.0035
GAGGACGGTG | 1.03 ± 0.015
TGATCGGGCG | 1.04 ± 0.02
AAAAGGACGG | 1.044 ± 0.0036
AACCATTAGG | 0.9956 ± 0.0053
GGTTAGATAC | 1.19 ± 0.025
TTAGAGTGGA | 0.968 ± 0.024
TATGGGTTTG | 0.994 ± 0.04
GATTGCCGCG | 1 ± 0.047
GCAGTGCGCC | 1.2 ± 0.05
GGCTTGGTGT | 1 ± 0.013
TTTGTTTATC | 1.02 ± 0.057
CGATGGGATT | 1.056 ± 0.0043
TTAGAGTATG | 1.0206 ± 0.0007
TTCTTAACAT | 1.054 ± 0.01
AAGCCGCTCG | 1 ± 0.015
GCGGGGACTT | 0.984 ± 0.038
ACCCAGAGCG | 1.14 ± 0.023
GATGGCGGGG | 0.981 ± 0.03
CAACATCTCG | 0.993 ± 0.019
AAGGGAGGGA | 1.01 ± 0.036
ACAGTGCTGC | 0.978 ± 0.012
TCGAAAGTGT | 1 ± 0.025

Sequence | switch fluorescence ratio
GCGTCAAGTG | 0.988 ± 0.026
GCCGGGAAAC | 1.043 ± 0.0036
CGTGAAAGCT | 1.18 ± 0.037
GGGGTAAATT | 1 ± 0.039
CCGAATATGA | 1.55 ± 0.079
GGATATAGCC | 0.994 ± 0.013
AATAATTGGG | 0.9967 ± 0.0012
GTTTTCAACA | 0.98916 ± 0.00045
GTGGTGCCAA | 1.01 ± 0.026
GGGACGACAG | 1.04 ± 0.031
GCTTTAATTG | 1.004 ± 0.0097
TTTGGAGGTG | 1.04 ± 0.024
CGTTTAGGGA | 1.004 ± 0.0026
CTAATATCTC | 1.016 ± 0.01
AAACGGGTTC | 1.01 ± 0.036
CGGAGAATGG | 1.11 ± 0.13
TTTAACGTCG | 1.035 ± 0.005
ATGGTGGCCG | 0.997 ± 0.026
TTTTTTGGAT | 1.01 ± 0.022
AAATATTTTA | 0.999 ± 0.015
TTCTAGTAA | 0.998 ± 0.021
TTCGGCACGT | 1.01 ± 0.021
AGTGGTTATT | 0.989 ± 0.032
TTCCCACGGG | 1.64 ± 0.31
GACTTCCATT | 1.07 ± 0.016
AAGGCGCTCT | 0.997 ± 0.014

Sequence | switch fluorescence ratio
CGTTGGGGTT | 1.02 ± 0.036
GAAAAGCATG | 0.988 ± 0.043
TAGGTTGTGC | 0.976 ± 0.037
CAGTTTAAGG | 1.01 ± 0.024
TTTGAGTTGT | 0.962 ± 0.035
GGGGTTCACG | 0.988 ± 0.005
TGTGGGATGT | 0.9704 ± 0.0039
TGGCTTCGGC | 0.9979 ± 0.0053
CGGTCGCCGG | 1.01 ± 0.02
GGAATGAGGA | 0.99242 ± 0.0004
GGGTTTTCCG | 1.02 ± 0.035
TACAAAGGGA | 1.01 ± 0.027
TACAGGCGGA | 1.02 ± 0.021
TGCAATATTT | 1.31 ± 0.02
AAATCGGAAT | 1.25 ± 0.27
AGAGTGCTTC | 0.999 ± 0.028
CAGATGGTGT | 1.02 ± 0.015
ACTGTAGTCT | 1.06 ± 0.012
CTGGGGGAAT | 1.01 ± 0.013
GGCTGGGCGA | 0.983 ± 0.02
TTGTAATGGG | 0.988 ± 0.019
GATTTGGCTG | 0.986 ± 0.019
AGGAAGCAGT | 1.018 ± 0.0085
